Reference: the supplement of paper PMC9170038

System: MS2 coat protein
Assay: apparent KD of MS2 coat protein; designed switch direction (-1 OFF switch, 1 ON switch): 1; higher = weaker reporter binding
Summary of the method: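 Stalled E. coli RNA polymerase transcribed designed RNA switches on Illumina chips, which were then titrated with SNAP-549-labelled MS2 coat protein, doubling from 0.7 or 1.5 nM to 3 µM. Steps lasted from 0.8–1.5 h at the lowest concentration to 10–20 min at the highest. The apparent KD is each design's median over clusters of curve-fitted normalised fluorescence.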

[1] = Eterna round: R95, input ligand: FMN 200 uM
[2] = Eterna round: R95, input ligand: microRNA oligo, concentration not stated
[3] = Eterna round: R95, input ligand: none
[4] = input ligand: microRNA oligo, concentration not stated

Row | Sequence | apparent KD of MS2 coat protein [1] [nM] | apparent KD of MS2 coat protein [2] [nM] | apparent KD of MS2 coat protein [3] [nM] | apparent KD of MS2 coat protein (input ligand: FMN 200 uM) [nM] | apparent KD of MS2 coat protein [4] [nM] | apparent KD of MS2 coat protein (input ligand: none) [nM]
1 | CUAACAACAAGUUGCAGUGUUCGUCUUUAACAUGAGGAUCACCCAUGUAAUAGCCCGGUAGAAGCGCUCGGGCCACC [Anaesrain] (puzzle: Sensor for hsa-mir-208a) | 32.8 | 38.1 | 36.3 |  |  | 
2 | ACAUGAGAGUGAGGAUAUCAUGUACCUACAUGUGACAUGAGGAUCACCCAUGUGGUAAGUAUGACUGAGAAGGCACAGAUAUGU [Equivalance 90 - Jieux - Same State NG 2] (Eterna round: R96, puzzle: Same State NG 2) |  |  |  | 70.3 | 267 | 889
3 | CGCCAGAGAGCAGGAUAUGGGCCACAGCCUAAGGGCUGUGAACUCACAUGAGGAUCACCCAUGUCCCAGAAGGGCUCCUAGCUA [Erzabe] (Eterna round: R96, puzzle: Same State NG 2) |  |  |  | 203 | 701 | 1920
4 | UGCUACUGGGUAGGAUAUUUAGGAUAUGGGAAAGACUAAGUCUGUAGGUCACCUAACCCAGAAGGAGAGAAGGACCAUUCAGCU [pwkr ssNG2 2FMN + F9.33] (Eterna round: R96, puzzle: Same State NG 2) |  |  |  | 29.5 | 55.3 | 32.7
5 | GUGGUCAGACAUGAGGAUCACCCAUGUGGAAUAAAUAACACACAGGAUAUGUAAUAUAAAAUAUAACAGAAGGGUGGAUUGGUG (Eterna round: R96, puzzle: Same State NG 3) |  |  |  |  | 213 | 
6 | CAGCGCUGUCGAGAGGAUAUGCGGUGAUGGACAUGAGGAUCACCCAUGUUAGCGACAGCAUCACGGCAGAAGGCUCUAUCGCUGC [Soteed Omei mod 29] (puzzle: Same State 2) | 24.2 | 39.5 | 48.9 |  |  | 
7 | GUAACAUGACGAGGAUAUGGAACAUGAGGAUCACCCAUGUAUGUUCCAUAACGCGAAUGACGAAUCCAGAAGGCGUCGUGAAUG [Mat - Same State NG 2 - JL mod - D29] (Eterna round: R96, puzzle: Same State NG 2) |  |  |  | 41.7 | 124 | 220
8 | UAUCCAUAGAUAGGAUAUUAGAGAACAUGAGGAUCACCCAUGUUUGGCUUGGUUUUAAGCUAAUCUAAGAAGGAUCUUGAUGAA [SameState NG2 #9] (Eterna round: R96, puzzle: Same State NG 2) |  |  |  | 13.3 | 22.9 | 36.5
9 | GGUAUCGGCACAGGAUAUGCUAUCCUUUGGGUAGCAGAAGGGUGGAACAUGAGGAUCACCCAUGUGGUGCCAGGGCGUGAGCCC [JL SSNG1 1.88] (Eterna round: R96, puzzle: Same State NG 1) |  |  |  | 586 | 125 | 909
10 | AUUUCUAGCAUAGGAUAUCAUGCGAAAAUUGCGUGAGAAGGGUGGACGCUGUCAUUCACGGAAGACAUGAGGAUCACCCAUGUC [SameState NG1 #75] (Eterna round: R96, puzzle: Same State NG 1) |  |  |  | 76.6 | 67.6 | 87.2
11 | ACCCAAAAUACAUGGGAACAAGCUUUUUAACAUGAGGAUCACCCAUGUACUCGUCUUAUAAGCAGUCGAAAGACUGC [hsa-mir-208a sensor: 113] (Eterna round: R96, puzzle: Sensor for hsa-mir-208a) |  |  |  | 563 | 14.6 | 518
12 | AGGAGUAUCUGACAUGAGGAUCACCCAUGUUCCAUUCUACGAUAGGAUAUCGAAAUACAAAGACGCGAGAAGGAUCAGAACCUA [Eternabot solution 48] (Eterna round: R96, puzzle: Same State NG 3) |  |  |  | 23.2 | 16.5 | 26.8
13 | UUGAUGAACUGAGGAUAUCGAGUCGUCUGAUUAUACAUGAGGAUCACCCAUGUGGGUUGUGGUAUCGAGAAGGCAGAUUACUUA [JR_SSNG2_Sub032] (Eterna round: R96, puzzle: Same State NG 2) |  |  |  | 82.8 | 117 | 260
14 | GAGGGCGAAAGCAACAUGAGGAUCACCCAUGUCCUCGGAGGGCAGGAUAUCCGGCGGUAGCCGAAGGAGAAGGGUCGGUAAACC [AK SSNG3-V2-33] (Eterna round: R96, puzzle: Same State NG 3) |  |  |  | 258 | 214 | 184
15 | GCUCGAUGAGCGUUCUACAUGAGGAUCACCCAUGUUCGUGGGCAGGAUAUUUACAUGCAGAGUGUAGAGAAGGGCCCAUCGAGC [SameState NG3 #66] (Eterna round: R96, puzzle: Same State NG 3) |  |  |  | 205 | 117 | 838
16 | AACAGUCGACGAGGAUAUGGACGGACAGGUUUGCCUGUGCGGCUCACAUGAGGAUCACCCAUGUUCUAGAAGGCGUCACUGUGA [Matidia] (Eterna round: R96, puzzle: Same State NG 2) |  |  |  | 15.5 | 79.2 | 80.5

Row | Sequence | apparent KD of MS2 coat protein [1] [nM] | apparent KD of MS2 coat protein [2] [nM] | apparent KD of MS2 coat protein [3] [nM] | apparent KD of MS2 coat protein (input ligand: FMN 200 uM) [nM] | apparent KD of MS2 coat protein [4] [nM] | apparent KD of MS2 coat protein (input ligand: none) [nM]
17 | UCUUGGUUUUUGCUCGUUUUUUGUGUUGAACAUGAGGAUCACCCAUGUAUUGUACGGUCCGGUUUAAUAGUGGUCCG [JMF 14] (puzzle: Sensor for hsa-mir-208a) | 27.8 | 15.4 | 28.3 |  |  | 
18 | ACGUGGCUGCCGCAGGAUAUACCCUGUUCCACAUGAGGAUCACCCAUGUUUACGAACUAUGAGAGGUAGAAGGGUGGAUGUCAUU [Beenvean] (puzzle: Same State 2) |  | 23.7 |  |  |  | 
19 | UCAAUCAUGUAAGGAUAUGCAGCCGAAACGGCUGCAGAAGGUACUAUAAUUACAUGAGGAUCACCCAUGUUAUAAAAUUAAAAU [Mat - Same State NG 1 - JL mod - D69] (Eterna round: R96, puzzle: Same State NG 1) |  |  |  | 35.3 | 101 | 130
20 | AGUCCAGCCUGAGCUGGACAAAAGCAUGUACAUGAGGAUCACCCAUGUUCAUGUACAAGCUUUUUGCUCGUCUUAAC [salish99_208a_r3_029] (puzzle: Sensor for hsa-mir-208a) | 553 | 16.8 | 636 |  |  | 
21 | AGUGGAGCCUGAGCUCCACAAAAGCAUGUACAUGAGGAUCACCCAUGUCAUGUACAAGCUUUUUGCUCGUCUUAAAA [Mat - hsa-mir-208a - Mod of JL - D18] (puzzle: Sensor for hsa-mir-208a) | 536 | 18.8 | 423 |  |  | 
22 | GAGGCACAUGAGGAUCACCCAUGUGGGCGGAACAUAGGAUAUCGCCAACAAUAAGCCCGGUGAGAAGGAUGAUGCC [Lexereat] (puzzle: Same State 1) | 46.2 | 17.6 | 36.4 |  |  | 
23 | GUUACAUGAGGAUCACCCAUGUAUGUGUGGGAGUAAGUGUCUUAGGAUAUCUAUUAUAUAAAUUAAGAGAAGGAAGAUUGUUGU [JMF's solution 16] (Eterna round: R96, puzzle: Same State NG 3) |  |  |  | 126 | 87.9 | 124
24 | AGUCCAGCAUGAGCUGGACAAAAGCAUGUACAUGAGGAUCACCCAUGUCAUGUACAAGCUUUUUGCUCGUCUUAAUA [Mat - hsa-mir-208a - Mod of JL - D35] (puzzle: Sensor for hsa-mir-208a) | 513 | 15.9 | 534 |  |  | 
25 | CCGGUUAAUGGAGGAUAUGGAGCCUUAUUGGCUCCAGAAGGCUAAACAUGAGGAUCACCCAUGUUACCGGCGGUCAAUAGACCG [Eli NG1ss - 61] (Eterna round: R96, puzzle: Same State NG 1) |  |  |  | 11.5 | 18 | 23
26 | AGUCCAGCCUGAGCUGGACAAAAGCAUGUACAUGAGGAUCACCCAUGUUCAUGUACAAGCUUUUUGCUCGUCAUAAA [Mat - hsa-mir-208a - Mod of JL - 51] (puzzle: Sensor for hsa-mir-208a) | 402 | 14.9 | 474 |  |  | 
27 | UGGAUCUAGGCUUGCCUGGGUCCAUGUUGACAUGAGGAUCACCCAUGUGUAUUUUAUAAGCUUUUUGUUUGUCAACU [JL A Humble Attempt mod 8] (puzzle: Sensor for hsa-mir-208a) | 25.7 | 12.8 | 28.4 |  |  | 
28 | UUCUUACAUGAGGAUCACCCAUGUGUUGUCGUGGGAGGAUAUCCUGGUUCGGUGGCGUUGGGAGAAGGCCUAUGUU [× ×•×ª×• ×ž×“×™× ×” × ×—×ª-19] (puzzle: Same State 1) | 476 | 134 | 376 |  |  | 
29 | AGCCUGAGUCGAGGAUAUUAUGGAUCCUUUAAUACAUGAGGAUCACCCAUGUAAUUAAUUAUACAUGAGAAGGCGACUCAGGCA [SSNG2/11-A1] (Eterna round: R96, puzzle: Same State NG 2) |  |  |  | 10.9 | 30.4 | 129
30 | GCGAGCGUACUUGCUACAUGAGGAUCACCCAUGUUUUAUGGACAGGAUAUGGUACCGUUUCGGUACCAGAAGGGUUCACAUGUG [JL SSNG3 3.82] (Eterna round: R96, puzzle: Same State NG 3) |  |  |  | 133 | 186 | 254
31 | AUAUCCUUUUUAUACAUGAGGAUCACCCAUGUUUUUCUUACGUAGGAUAUCGUUGUUUUUUUUUACGAGAAGGACGUAGAAUGU [JR_SSND3_Sub063] (Eterna round: R96, puzzle: Same State NG 3) |  |  |  |  | 23.5 | 
